Measurements from patent US20100087631A1 (Eli Lilly, published 2010).

T1: recombinant mouse myostatin (R&D systems, Cat. #788-G8/CF) (mouse, UniProt O08689 268-376)
T1 construct: Bought protein; also called GDF-8; myostatin (R&D Systems 788-G8)
T1 sequence: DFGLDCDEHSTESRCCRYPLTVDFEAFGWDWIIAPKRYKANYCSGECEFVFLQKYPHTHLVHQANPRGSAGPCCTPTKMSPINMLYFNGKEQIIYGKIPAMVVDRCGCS

B1: C12 Fab (Fab, V domains shown)
VH: QLQLQESGPGLVKPSETLSLTCTVSGFSLRKVGSSVSWIRQPPGKGLEWIGHIYWDDDKRLNPSLRNRVTISVDTSKNQFSLKLSSVTAADTAVYYCARRAITTVIGGGTFDLWGQGTLVTVSS
VL: DIQMTQSPSSLSASVGDRVTITCSASSSISYMHWYQQKPGKAPKLLIYDTSKLARGVPSRFSGSGSGTDFTLTISSLQPEDFATYYCQQWYLNPLTFGGGTKVEIKR

What was measured:
[1] = target: recombinant human HGF (R&D Systems, catalog #294-HG/CF) (human) (UniProt P14210); assay: ELISA, human HGF coated on plate, isotype control at 1 ug/ml (column headed C12 HGF)
Chain of recombinant human HGF (R&D Systems, catalog #294-HG/CF) (human) (P14210 32-728 limits assumed): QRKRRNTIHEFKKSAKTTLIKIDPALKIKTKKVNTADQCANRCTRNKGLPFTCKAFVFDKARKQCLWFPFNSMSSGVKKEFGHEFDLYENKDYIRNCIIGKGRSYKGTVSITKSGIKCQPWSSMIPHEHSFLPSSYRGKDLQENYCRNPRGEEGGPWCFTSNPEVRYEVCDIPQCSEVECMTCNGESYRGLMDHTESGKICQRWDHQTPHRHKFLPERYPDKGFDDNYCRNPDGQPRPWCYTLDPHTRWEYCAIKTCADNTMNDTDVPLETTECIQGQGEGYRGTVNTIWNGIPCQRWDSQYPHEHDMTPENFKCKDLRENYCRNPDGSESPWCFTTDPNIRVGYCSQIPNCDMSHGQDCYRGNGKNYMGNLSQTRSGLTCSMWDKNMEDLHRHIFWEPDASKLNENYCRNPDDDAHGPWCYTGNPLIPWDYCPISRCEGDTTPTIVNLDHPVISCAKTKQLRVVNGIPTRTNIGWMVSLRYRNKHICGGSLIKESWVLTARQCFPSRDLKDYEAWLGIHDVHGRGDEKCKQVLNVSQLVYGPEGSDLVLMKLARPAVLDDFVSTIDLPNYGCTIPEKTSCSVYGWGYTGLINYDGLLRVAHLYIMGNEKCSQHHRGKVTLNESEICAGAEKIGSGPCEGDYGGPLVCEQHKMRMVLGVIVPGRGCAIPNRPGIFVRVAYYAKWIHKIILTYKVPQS

[2] = target: recombinant human HGF (R&D Systems, catalog #294-HG/CF) (human) (UniProt P14210); assay: ELISA, human HGF coated on plate, isotype control at 1 ug/ml (column headed 510C2 HGF)
human GDF-8 (human) [3] = target: human GDF-8 (human) (UniProt O14793); assay: ELISA, human GDF-8 coated on plate, isotype control at 1 ug/ml (column headed C12 GDF-8)
[4] = target: recombinant human GDF-11 (Peprotech, Inc., Cat. #120-11) (human) (UniProt O95390); assay: ELISA, human GDF-11 coated on plate, isotype control at 1 ug/ml (column headed C12 GDF-11)
Chain of recombinant human GDF-11 (Peprotech, Inc., Cat. #120-11) (human) (O95390 299-407 limits assumed): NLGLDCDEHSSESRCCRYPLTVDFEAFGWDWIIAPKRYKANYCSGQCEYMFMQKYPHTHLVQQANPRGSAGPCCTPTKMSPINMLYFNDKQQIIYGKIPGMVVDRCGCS

human GDF-8 (human) [5] = target: human GDF-8 (human) (UniProt O14793); assay: ELISA, human GDF-8 coated on plate, isotype control at 1 ug/ml (column headed 510C2 GDF-8)
[6] = target: recombinant human GDF-11 (Peprotech, Inc., Cat. #120-11) (human) (UniProt O95390); assay: ELISA, human GDF-11 coated on plate, isotype control at 1 ug/ml (column headed 510C2 GDF-11)
[7] = target: T1, recombinant mouse myostatin (R&D …); assay: ELISA, GDF-8 coated on plate (GDF-8 down), Fab titrated, anti-kappa AP detection

Row | Molecule | average absorbance at 490 nm [1] [OD 490 nm] | average absorbance at 490 nm [2] [OD 490 nm] | average absorbance at 490 nm (human GDF-8 (human) [3]) [OD 490 nm] | average absorbance at 490 nm [4] [OD 490 nm] | average absorbance at 490 nm (human GDF-8 (human) [5]) [OD 490 nm] | average absorbance at 490 nm [6] [OD 490 nm] | IC50 [7] [µg/mL]
1 | isotype control antibody | 0.049 | 0.0804 | 0.0519 | 0.0487 | 0.0907 | 0.0919 | –
2 | B1 | – | – | – | – | – | – | 0.25
